Assay results: patent publication US20260201008A1, “SECRETIN-DERIVED GLP1R SELECTIVE AGONISTS” (GUBRA A/S, priority 2023, published 2026)
Numbered stars: 1 amine (or outer) side, 2 acyl side, 3 side chain; on linkers, the order of the positions; unused ones are H or OH. Square brackets hold non-standard residues; d marks the D form. Side chains are listed from the residue outwards. Ends that are not written are not given here. * marks the point of attachment. C20 diacid = O=C(O)CCCCCCCCCCCCCCCCCCC(=O)*; γGlu = O=C(O)[C@H](CCC(=O)[*:2])N[*:1]; AEEA = NCCOCCOCC(=O)O; Aib = CC(C)(N)C(=O)O

Legend:
[1] = biological target: human secretin receptor (hSCTR) (human, UniProt P47872 23-440); assay: cell-based or functional assay
[2] = biological target: human GLP-1 receptor (hGLP1R) (human, UniProt P43220 24-463); assay: cell-based or functional assay

Chain of human secretin receptor (hSCTR) (P47872 23-440): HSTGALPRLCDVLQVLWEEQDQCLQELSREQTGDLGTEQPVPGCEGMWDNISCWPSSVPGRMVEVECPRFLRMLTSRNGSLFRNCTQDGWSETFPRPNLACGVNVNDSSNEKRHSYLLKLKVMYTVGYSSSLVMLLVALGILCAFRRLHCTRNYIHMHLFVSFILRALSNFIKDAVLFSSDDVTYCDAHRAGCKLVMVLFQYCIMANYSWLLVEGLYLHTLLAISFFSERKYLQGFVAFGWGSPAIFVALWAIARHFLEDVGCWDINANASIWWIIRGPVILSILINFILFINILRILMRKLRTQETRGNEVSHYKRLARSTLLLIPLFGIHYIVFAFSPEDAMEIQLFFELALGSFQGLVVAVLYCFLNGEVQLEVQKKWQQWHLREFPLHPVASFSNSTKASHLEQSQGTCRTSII

Binder: H[Aib]EGTFTSDVSYLKEEA[Aib]EQRFLEHLV-NH2 (not fully specified (residue 14)) [SEQ ID NO: 150]
- pEC50 hSCTR [1]: 5.5 -log M
- pEC50 hGLPR1 [2]: 11.3 -log M

Binder: H[Aib]EGTFTSDVSRLK([AEEA-AEEA-γGlu-C20 diacid])EFAAAQRFLEHLV-NH2 [SEQ ID NO: 2]
- pEC50 hSCTR [1]: 6.3 -log M
- pEC50 hGLPR1 [2]: 10.1 -log M

Binder: H[Aib]EGTFTSDVSYLKEEA[Aib]LQRFLEELV-NH2 (not fully specified (residue 14)) [SEQ ID NO: 151]
- pEC50 hSCTR [1]: 6.9 -log M
- pEC50 hGLPR1 [2]: 10.6 -log M

Binder: H[Aib]EGTFTSDVSYLKEEA[Aib][Aib]QRFLEHLV-NH2 (not fully specified (residue 14)) [SEQ ID NO: 152]
- pEC50 hSCTR [1]: 5.4 -log M
- pEC50 hGLPR1 [2]: 10.9 -log M

Binder: H[Aib]EGTFTSDVSDLKEEA[Aib]LQRFLEHLV-NH2 (not fully specified (residue 14)) [SEQ ID NO: 153]
- pEC50 hSCTR [1]: 6.5 -log M
- pEC50 hGLPR1 [2]: 10.7 -log M

Binder: H[Aib]EGTFTSDVSYLKEEA[Aib]GQRFLEHLV-NH2 (not fully specified (residue 14)) [SEQ ID NO: 154]
- pEC50 hSCTR [1]: 5.4 -log M
- pEC50 hGLPR1 [2]: 10.8 -log M

Binder: H[Aib]VGTFTSDVSYLKEEA[Aib]LQRFLEHLV-NH2 (not fully specified (residue 14)) [SEQ ID NO: 155]
- pEC50 hSCTR [1]: 4.6 -log M
- pEC50 hGLPR1 [2]: 10.9 -log M

Binder: H[Aib]EGTFTSDVSTLKE[Aib]AAEQRFLEHLV-NH2 (not fully specified (residue 14)) [SEQ ID NO: 16]
- pEC50 hSCTR [1]: 6.9 -log M
- pEC50 hGLPR1 [2]: 10.4 -log M

Binder: H[Aib]QGTFTSDVSYLKEEA[Aib]LQRFLEHLV-NH2 (not fully specified (residue 14)) [SEQ ID NO: 156]
- pEC50 hSCTR [1]: 4.4 -log M
- pEC50 hGLPR1 [2]: 10.8 -log M

Binder: H[Aib]EGTFTSDVSYLKEEA[Aib]QQRFLEHLV-NH2 (not fully specified (residue 14)) [SEQ ID NO: 157]
- pEC50 hSCTR [1]: 6.5 -log M
- pEC50 hGLPR1 [2]: 11.6 -log M

Binder: H[Aib]EGTFTSDVSYL[Aib]EEA[Aib]LQRFLEKLV-NH2 (not fully specified (residue 25)) [SEQ ID NO: 158]
- pEC50 hSCTR [1]: 5.8 -log M
- pEC50 hGLPR1 [2]: 10.4 -log M

Binder: H[Aib]YGTFTSDVSYLKEEA[Aib]LQRFLEHLV-NH2 (not fully specified (residue 14)) [SEQ ID NO: 159]
- pEC50 hSCTR [1]: 4.6 -log M
- pEC50 hGLPR1 [2]: 9.1 -log M

Binder: H[Aib]WGTFTSDVSYLKEEA[Aib]LQRFLEHLV-NH2 (not fully specified (residue 14)) [SEQ ID NO: 160]
- pEC50 hSCTR [1]: 4.6 -log M
- pEC50 hGLPR1 [2]: 9.1 -log M

Binder: H[Aib]EGTFTSDVSYLKEEA[Aib]VQRFLEHLV-NH2 (not fully specified (residue 14)) [SEQ ID NO: 161]
- pEC50 hSCTR [1]: 6.8 -log M
- pEC50 hGLPR1 [2]: 11.4 -log M

Binder: H[Aib]EGTFTSDVSYLKEEA[Aib]TQRFLEHLV-NH2 (not fully specified (residue 14)) [SEQ ID NO: 162]
- pEC50 hSCTR [1]: 6.9 -log M
- pEC50 hGLPR1 [2]: 12.2 -log M

Binder: H[Aib]EGTFTSDVS[Aib]LKEEA[Aib]LQRFLEHLV-NH2 (not fully specified (residue 14)) [SEQ ID NO: 163]
- pEC50 hSCTR [1]: 7.4 -log M
- pEC50 hGLPR1 [2]: 10.9 -log M

Binder: H[Aib]EGTFTSDVSYLHEEA[Aib]LQRFLEKLV-NH2 (not fully specified (residue 25)) [SEQ ID NO: 164]
- pEC50 hSCTR [1]: 6.6 -log M
- pEC50 hGLPR1 [2]: 10.7 -log M

Binder: H[Aib]EGTFTSDVSTLK([AEEA-AEEA-γGlu-C20 diacid])EEA[Aib]LQRFLEHLV-NH2 [SEQ ID NO: 165]
- pEC50 hSCTR [1]: 8 -log M
- pEC50 hGLPR1 [2]: 11.2 -log M

Binder: H[Aib]EGTFTSDVSRLK([AEEA-AEEA-γGlu-C20 diacid])EEAASQRFLEHLV-NH2 [SEQ ID NO: 17]
- pEC50 hSCTR [1]: 6.6 -log M
- pEC50 hGLPR1 [2]: 10.6 -log M

Binder: HAEGTFTSDVSYLK([AEEA-AEEA-γGlu-C20 diacid])EEA[Aib]LQRFLEHLV-NH2 [SEQ ID NO: 166]
- pEC50 hSCTR [1]: 6.5 -log M
- pEC50 hGLPR1 [2]: 11.1 -log M

Binder: H[Aib]EGTFTSDVSGLK([AEEA-AEEA-γGlu-C20 diacid])EEA[Aib]LQRFLEHLV-NH2 [SEQ ID NO: 167]
- pEC50 hSCTR [1]: 7 -log M
- pEC50 hGLPR1 [2]: 11.2 -log M

Binder: H[Aib]EGTFTSDVSYLK([AEEA-AEEA-γGlu-C20 diacid])EEA[Aib]LQRFLEWLV-NH2 [SEQ ID NO: 169]
- pEC50 hSCTR [1]: 6.3 -log M
- pEC50 hGLPR1 [2]: 10.4 -log M

Binder: H[Aib]LGTFTSDVSYLK([AEEA-AEEA-γGlu-C20 diacid])EEA[Aib]LQRFLEHLV-NH2 [SEQ ID NO: 170]
- pEC50 hSCTR [1]: 4.6 -log M
- pEC50 hGLPR1 [2]: 10.6 -log M

Binder: H[Aib]HGTFTSDVSYLK([AEEA-AEEA-γGlu-C20 diacid])EEA[Aib]LQRFLEHLV-NH2 [SEQ ID NO: 171]
- pEC50 hSCTR [1]: 4.5 -log M
- pEC50 hGLPR1 [2]: 9.8 -log M

Binder: H[Aib]EGTFTSDVSILK([AEEA-AEEA-γGlu-C20 diacid])EEA[Aib]LQRFLEHLV-NH2 [SEQ ID NO: 172]
- pEC50 hSCTR [1]: 7.7 -log M
- pEC50 hGLPR1 [2]: 10.8 -log M

Binder: H[Aib]EGTFTSDVSFLK([AEEA-AEEA-γGlu-C20 diacid])EEA[Aib]LQRFLEHLV-NH2 [SEQ ID NO: 173]
- pEC50 hSCTR [1]: 6.8 -log M
- pEC50 hGLPR1 [2]: 10.9 -log M

Binder: H[Aib]EGTFTSDVSWLK([AEEA-AEEA-γGlu-C20 diacid])EEA[Aib]LQRFLEHLV-NH2 [SEQ ID NO: 174]
- pEC50 hSCTR [1]: 7 -log M
- pEC50 hGLPR1 [2]: 10.9 -log M

Binder: H[Aib]IGTFTSDVSYLK([AEEA-AEEA-γGlu-C20 diacid])EEA[Aib]LQRFLEHLV-NH2 [SEQ ID NO: 175]
- pEC50 hSCTR [1]: 5.1 -log M
- pEC50 hGLPR1 [2]: 10.5 -log M

Binder: H[Aib]EGTFTSDVSELK([AEEA-AEEA-γGlu-C20 diacid])E[Aib]AAEQRFLEHLV-NH2 [SEQ ID NO: 18]
- pEC50 hSCTR [1]: 6.3 -log M
- pEC50 hGLPR1 [2]: 10.5 -log M

Binder: H[Aib]EGTFTSDVSYLFEEA[Aib]LQRFLEK([AEEA-AEEA-γGlu-C20 diacid])LV-NH2 [SEQ ID NO: 176]
- pEC50 hSCTR [1]: 5.5 -log M
- pEC50 hGLPR1 [2]: 10.5 -log M

B1: SEQ ID NO: 177 (peptide)
peptide: H[Aib]EGTFTSDVSFLLEGAALQRFIQWLV-NH2
modifications: N-terminus assumed
SMILES: CC[C@H](C)[C@H](NC(=O)[C@H](Cc1ccccc1)NC(=O)[C@H](CCCNC(=N)N)NC(=O)[C@H](CCC(N)=O)NC(=O)[C@H](CC(C)C)NC(=O)[C@H](C)NC(=O)[C@H](C)NC(=O)CNC(=O)[C@H](CCC(=O)O)NC(=O)[C@H](CC(C)C)NC(=O)[C@H](CC(C)C)NC(=O)[C@H](Cc1ccccc1)NC(=O)[C@H](CO)NC(=O)[C@@H](NC(=O)[C@H](CC(=O)O)NC(=O)[C@H](CO)NC(=O)[C@@H](NC(=O)[C@H](Cc1ccccc1)NC(=O)[C@@H](NC(=O)CNC(=O)[C@H](CCC(=O)O)NC(=O)C(C)(C)NC(=O)[C@@H](N)Cc1c[nH]cn1)[C@@H](C)O)[C@@H](C)O)C(C)C)C(=O)N[C@@H](CCC(N)=O)C(=O)N[C@@H](Cc1c[nH]c2ccccc12)C(=O)N[C@@H](CC(C)C)C(=O)N[C@H](C(N)=O)C(C)C
- pEC50 hSCTR [1]: 6.3 -log M
- pEC50 hGLPR1 [2]: 10.8 -log M

B2: SEQ ID NO: 178 (peptide)
peptide: H[Aib]EGTFTSDVSRLLEGAALQRFIQWLV-NH2
modifications: N-terminus assumed
SMILES: CC[C@H](C)[C@H](NC(=O)[C@H](Cc1ccccc1)NC(=O)[C@H](CCCNC(=N)N)NC(=O)[C@H](CCC(N)=O)NC(=O)[C@H](CC(C)C)NC(=O)[C@H](C)NC(=O)[C@H](C)NC(=O)CNC(=O)[C@H](CCC(=O)O)NC(=O)[C@H](CC(C)C)NC(=O)[C@H](CC(C)C)NC(=O)[C@H](CCCNC(=N)N)NC(=O)[C@H](CO)NC(=O)[C@@H](NC(=O)[C@H](CC(=O)O)NC(=O)[C@H](CO)NC(=O)[C@@H](NC(=O)[C@H](Cc1ccccc1)NC(=O)[C@@H](NC(=O)CNC(=O)[C@H](CCC(=O)O)NC(=O)C(C)(C)NC(=O)[C@@H](N)Cc1c[nH]cn1)[C@@H](C)O)[C@@H](C)O)C(C)C)C(=O)N[C@@H](CCC(N)=O)C(=O)N[C@@H](Cc1c[nH]c2ccccc12)C(=O)N[C@@H](CC(C)C)C(=O)N[C@H](C(N)=O)C(C)C
- pEC50 hSCTR [1]: 7.2 -log M
- pEC50 hGLPR1 [2]: 10.2 -log M
